The source of these data is paper PMC5571939, “The nature of the Syntaxin4 C-terminus affects Munc18c-supported SNARE assembly” (PLoS ONE, 2017).

T1: HL-Munc18c (mouse, UniProt Q60770 1-592)
T1 construct: Munc18c (Munc18-3), mouse; The linker is said to have 53 amino acids; also called Munc18c with N-terminal His6-tag and long linker; source: E. coli, purified as described previously [39]; not shown: His6 with long linker ([residues removed]), N-terminal, kept
T1 sequence (looked up): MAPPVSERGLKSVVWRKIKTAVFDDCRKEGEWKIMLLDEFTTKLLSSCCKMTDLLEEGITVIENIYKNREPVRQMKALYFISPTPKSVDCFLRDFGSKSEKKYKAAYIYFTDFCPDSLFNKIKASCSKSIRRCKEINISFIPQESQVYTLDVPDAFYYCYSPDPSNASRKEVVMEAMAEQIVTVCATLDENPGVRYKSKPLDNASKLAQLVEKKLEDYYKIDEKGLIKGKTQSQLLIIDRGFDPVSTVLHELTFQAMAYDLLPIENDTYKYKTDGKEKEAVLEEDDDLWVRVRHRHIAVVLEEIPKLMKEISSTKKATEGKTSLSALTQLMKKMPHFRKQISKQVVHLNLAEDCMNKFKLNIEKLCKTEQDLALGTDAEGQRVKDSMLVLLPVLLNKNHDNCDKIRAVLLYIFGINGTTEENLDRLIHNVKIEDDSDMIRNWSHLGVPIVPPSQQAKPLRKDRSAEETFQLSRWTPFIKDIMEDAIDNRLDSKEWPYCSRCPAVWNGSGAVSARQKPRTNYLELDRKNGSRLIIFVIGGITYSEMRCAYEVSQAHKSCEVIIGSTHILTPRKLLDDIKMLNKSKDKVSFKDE

T2: Munc18c:Sx4_(1-275)-His pre-formed complex (rat | mouse, UniProt Q08850 1-275; Q60770 1-592, C141S)
T2 construct: as m1; Munc18c (Munc18-3), mouse; as m10; m1 immobilised by its C-terminal His6 and complexed with m10 before SNAP23 and VAMP2 were added; also called Munc18c/Sx4-His; source: formed on TALON Co2+ beads from purified E. coli proteins; not shown: His6, C-terminal, kept; His6, N-terminal, cleaved
T2 sequence (looked up) 1: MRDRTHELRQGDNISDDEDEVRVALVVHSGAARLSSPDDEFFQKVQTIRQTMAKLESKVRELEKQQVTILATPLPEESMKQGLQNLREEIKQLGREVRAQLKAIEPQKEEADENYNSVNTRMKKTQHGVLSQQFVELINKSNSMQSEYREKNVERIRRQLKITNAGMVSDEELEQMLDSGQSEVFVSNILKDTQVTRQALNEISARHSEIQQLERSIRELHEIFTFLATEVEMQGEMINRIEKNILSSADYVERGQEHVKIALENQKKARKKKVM
T2 sequence (looked up) 2: T1 sequence (looked up)

T3: Munc18c:Sx4_(1-298)-TMD (HL-Munc18c with de-tagged full-length Sx4, pre-formed) (mouse, UniProt Q60770 1-592; P70452 1-298)
T3 construct: Munc18c (Munc18-3), mouse; as m12; Syntaxin4 (Sx4) with its C-terminal transmembrane domain, mouse, amino acids 1-298; as m6; also called HL-Munc18c/Sx4 binary complex; source: formed on TALON Co2+ beads from purified E. coli proteins; not shown: His6 with long linker ([residues removed]), N-terminal, kept; His6, N-terminal, cleaved
T3 sequence (looked up) 1: T1 sequence (looked up)
T3 sequence (looked up) 2: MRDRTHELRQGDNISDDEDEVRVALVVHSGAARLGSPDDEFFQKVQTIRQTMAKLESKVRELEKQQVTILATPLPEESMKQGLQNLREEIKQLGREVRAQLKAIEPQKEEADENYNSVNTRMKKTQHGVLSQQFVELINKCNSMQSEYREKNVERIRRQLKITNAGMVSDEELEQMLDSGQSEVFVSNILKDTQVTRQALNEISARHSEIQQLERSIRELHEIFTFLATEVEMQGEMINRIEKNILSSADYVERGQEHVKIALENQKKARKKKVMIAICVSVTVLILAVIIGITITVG

B1: Sx4_(1-298)-TMD (de-tagged, in detergent micelles) (natural protein, mouse, UniProt P70452 1-298, looked up)
chain: T3 sequence (looked up) 2
notes: Syntaxin4 (Sx4) with its C-terminal transmembrane domain, mouse, amino acids 1-298, synthetic gene (GenScript); Mouse, whereas the soluble Sx4 constructs are rat; also called full-length Sx4; HT-Sx4-TMD after TEV cleavage; source: E. coli Lemo21 (DE3), purified in DDM (TALON Co2+ IMAC, TEV cleavage, reverse IMAC); not shown: His6, N-terminal, cleaved
B2: SNAP23 (GST-cleaved) (natural protein, mouse, UniProt O09044 1-210, looked up)
chain: MDNLSPEEVQLRAHQVTDESLESTRRILGLAIESQDAGIKTITMLDEQGEQLNRIEEGMDQINKDMREAEKTLTELNKCCGLCICPCNRTKNFESGKNYKATWGDGGDNSPSNVVSKQPSRITNGQPQQTTGAASGGYIKRITNDAREDEMEENLTQVGSILGNLKNMALDMGNEIDAQNQQIQKITEKADTNKNRIDIANTRAKKLIDS
notes: SNAP23, mouse, amino acids 1-210; source: purified (GSH-agarose, thrombin cleavage, MonoQ anion exchange)
B3: Munc18c (de-tagged) (natural protein, mouse, UniProt Q60770 1-592, looked up)
chain: T1 sequence (looked up)
notes: Munc18c (Munc18-3), mouse; also called detagged Munc18c; HTMunc18c after TEV cleavage; source: E. coli, purified (IMAC, TEV cleavage, reverse IMAC, SEC); not shown: His6, N-terminal, cleaved
B4: HMunc18c (natural protein, mouse, UniProt Q60770 1-592, looked up)
chain: T1 sequence (looked up)
notes: Munc18c (Munc18-3), mouse; also called Munc18c with an N-terminal His6-tag; source: E. coli, purified as described previously [39]; not shown: His6, N-terminal, kept
B5: Alexa488-labeled Sx4_(1-275)-His (native C141) (domain or fragment, rat, UniProt Q08850 1-275, looked up)
chain: T2 sequence (looked up) 1 with S141C
modifications: Alexa Fluor 488 C5 maleimide on cysteine (native C141 rather than C141S)
notes: Degree of labeling greater than 90%; not shown: His6, C-terminal, kept
B6: Sx4_(1-275)-His (domain or fragment, rat, UniProt Q08850 1-275, looked up)
chain: T2 sequence (looked up) 1
notes: also called Syntaxin4 soluble cytoplasmic domain with C-terminal His6; source: E. coli, purified as described previously [17, 28]; not shown: His6, C-terminal, kept

Common to all, as to settings: both partners purified
For one assay, the target named is T1, HL-Munc18c. Description: pull-down; HL-Munc18c (20 μg, 1.4 μM) immobilised on TALON Co2+ beads; de-tagged Sx4 proteins (50 μg) added for 4 h (legend: 6 h), washed; binding buffer with 0.1% Triton X-100; SDS-PAGE, Coomassie.
Assay [1] deals with T2, Munc18c:Sx4_(1-275)-His pre-formed …. Description: pull-down; Sx4-His proteins immobilised by C-terminal His6 on Co2+ resin, pre-complexed with de-tagged Munc18c or without it (controls); GST-cleaved SNAP23 and VAMP2 (40 μg) added together, overnight, 4°C; SDS-PAGE, Coomassie.
The assay “Sx4_(1-275)-His” addresses B6. Described as above.
Assay [2] addresses T3, Munc18c:Sx4_(1-298)-TMD (HL-Munc18c …). Description: pull-down; beads with pre-formed HL-Munc18c/Sx4 binary complexes incubated with SNAP23 (100 μg, 21.7 μM) and VAMP2 (80 μg, 31.7 μM) together, overnight, 4°C; SDS-PAGE, Coomassie.
Assay [3] deals with T4, Sx4_(1-275)-T4L-His (rat | phage T4 (from the name T4 …, UniProt Q08850 1-275; P00720 1-164, C141S).
T4 construct: T4 lysozyme (T4L), amino acids 1-164, synthetic gene (GeneArt); Sx4 ligated between NdeI and HindIII, T4L between HindIII and XhoI of pET20b; also called Sx4 cytoplasmic domain with C-terminal T4-lysozyme fusion and His6; source: E. coli, purified; not shown: His6, C-terminal, kept
Description: BLI; C-terminally His-tagged Sx4 constructs loaded on Ni-NTA biosensors; de-tagged Munc18c 10/25–400 nM in solution; 25 mM Tris-Cl pH 7.5, 150 mM NaCl, 10 mM imidazole, 0.1% TX-100, 10% glycerol, 2 mM βME; BLItz; 1:1 fit.

The target in assay [4] is T4, Sx4_(1-275)-T4L-His. Description: ITC; Sx4-T4L-His construct (200–250 μM) titrated into HMunc18c (20–40 μM) in the cell; 298 K; 25 mM HEPES pH 8.0, 200 mM NaCl, 10% glycerol, 2 mM β-ME; single site model.
Assay [5] has as its target T5, Alexa488-labeled Sx4_(1-275)-T4L-His (native C141) (rat | phage T4 (from the name T4 …, UniProt Q08850 1-275)); P00720 1-164, Alexa Fluor 488 C5 maleimide on cysteine (native C141 rather than C141S)).
T5 construct: T4 lysozyme (T4L), amino acids 1-164, synthetic gene (GeneArt); Degree of labeling greater than 90%; not shown: His6, C-terminal, kept
Description: fluorescence polarisation; fluorescence anisotropy kinetics, both in solution: Alexa488-labeled Sx4 (50 nM) with HMunc18c at 100–2500 nM; 25°C; 25 mM HEPES pH 8.0, 200 mM NaCl, 1 mM TCEP, 2% glycerol; global 1:1 fit (Dynafit 4.0). For orientation: Polarisation of emitted light reports the rotation of a fluorescent probe.

The target of the assay “HMunc18c” is B4. The assay is described as above.
The assay “Munc18c (de-tagged)” concerns the target B3. Description: BLI; C-terminally His-tagged Sx4 constructs loaded on Ni-NTA biosensors; de-tagged Munc18c 10/25–400 nM in solution; 25 mM Tris-Cl pH 7.5, 150 mM NaCl, 10 mM imidazole, 0.1% TX-100, 10% glycerol, 2 mM βME; BLItz; 1:1 fit. In general terms: BLI is a label-free optical method that tracks binding on a fibre tip over time.

Changes are numbered by the printed parent chain. Names and notes keep the numbering of the source.

As to B1, the binding result with HL-Munc18c is “binds”.
Take B2: the binding result (in [1]; with Sx4_(1-275)-His; in assay [2]) was “binds” throughout.
What is called Kd is a measure of binding affinity in units of concentration. By koff is commonly meant the first-order rate constant of dissociation. As a reminder, the kon is a measure of how fast the partners come together. In the assay with Sx4_(1-275)-T4L-His [3], B3 came in with a Kd of 20 nM, an off-rate (koff) of 0.0078 s⁻¹ and an association rate constant (kon) of 430000 M⁻¹ s⁻¹.
Consider B4, for which the affinity with Sx4_(1-275)-T4L-His [4], expressed as Kd, was 100 nM. Also, in [5], the affinity, expressed as Kd, was 148 nM; the koff was 7.5e-05 s⁻¹; the on-rate (kon) was 502 M⁻¹ s⁻¹.
With B5, in the assay with HMunc18c, the equilibrium dissociation constant (Kd) was found to be 502 nM, the koff worked out at 0.000653 s⁻¹ and the kon turned out to be 1300 M⁻¹ s⁻¹.
B6: in the assay with Munc18c (de-tagged), the Kd worked out at 21 nM, the koff stood at 0.0086 s⁻¹ and the kon was determined as 530000 M⁻¹ s⁻¹.
